Reference: article PMC8072286, “Gcn5-Related N-Acetyltransferases (GNATs) With a Catalytic Serine Residue Can Play Ping-Pong Too” (Frontiers in Molecular Biosciences, 2021)

Substrate: CCCCCCCC(=O)N(C)CCN
Assay: steady-state acetyltransferase assay, substrate saturation
Format: biochemical, Pseudomonas aeruginosa
Settings: AcCoA held at 0.5 mM; NANMO 0-3.5 mM, used as hydrochloride
Source text: steady-state acetyltransferase assay, substrate saturation on PA3944

B1: PA3944 (Pseudomonas aeruginosa PAO1) (protein)
chain: MNANLPPSAISELHGPRLLLRAWRDSDREAFAEMCADPQVMEFFPSVLDRAQSDALVDRVQAHFAERGYGPWALELPGEAAFIGFTGLFDVTMDVHFAPTVEIGWRLAPAYWGRGLAREAAETALDFAFERLRLPEVVAFTTPPNRRSWGLMERLGMRRDPAEDFDHPLLAADHPMRRHILYRVDAARWAER
notes: heterologous expression; N-terminal polyhistidine tag kept for kinetics, removed for crystallization; monomer in solution
Work on B1 yielded a Km of 1070 ± 30 µM, a kcat of 0.41 s⁻¹ and a kcat/Km of 380 M⁻¹ s⁻¹.
